# Laboratory results as given in PMC2191386 (The Journal of Experimental Medicine, 1994).
# Molecular target: T1, LFA-3, purified (human (endogenous in JY), UniProt P19256 29-250)
# T1 sequence (looked up): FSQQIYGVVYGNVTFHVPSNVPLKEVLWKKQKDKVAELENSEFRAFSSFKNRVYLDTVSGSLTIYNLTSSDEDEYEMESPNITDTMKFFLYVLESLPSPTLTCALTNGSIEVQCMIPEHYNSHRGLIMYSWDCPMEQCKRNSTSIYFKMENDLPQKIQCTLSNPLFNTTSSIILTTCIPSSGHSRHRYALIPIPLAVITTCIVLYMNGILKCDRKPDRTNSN
# Experiment: cell adhesion to purified protein
binder,measurement,value
"CD2 on SKW3 cells (receptor, human (endogenous in SKW3), UniProt P06729 25-351, looked up) KEITNALETWGALGQDINLDIPSFQMSDDIDDIKWEKTSDKKKIAQFRKEKETFKEKDTYKLFKNGTLKIKHLKTDDQDIYKVSIYDTKGKNVLEKIFDLKIQERVSKPKISWTCINTTLTCEVMNGTDPELNLYQDGKHLKLSQRVITHKWTTSLSAKFKCTAGNKVSKESSVEPVSCPEKGLDIYLIIGICGGGSLLMVFVALLVFYITKRKKQRSRRNDEELETRAHRVATEERGRKPHQIPASTPQNPATSQHPPPPPGHRSQAPSHRPPPPGHRVQHQPQKRPPAPSGTQVHQQKGPPLPRPRVQPKPPHGAAENSLSPSSN",fold increase of cell binding on PMA stimulation,3 fold
